Values quoted from earlier work as cited in article PMC8315802.
Like-named read-outs stand apart in the source and are kept apart here.

Legend:
[1] = molecular target: actin filament (Oryctolagus cuniculus) (UniProt P68135)
[2] = molecular target: actin filament (Oryctolagus cuniculus) (UniProt P68135); remark: listed apart in the source
[3] = molecular target: actin filament (Oryctolagus cuniculus) (UniProt P68135); remark: listed apart in the source

Substance: Rng2 1-189 (from UniProt O14188)
- Kd [1]: 0.9 µM

Substance: α-actinin CHD (from UniProt P05094)
- Kd [2]: 4.7 µM

Substance: utrophin CHD (from UniProt P46939)
- Kd [3]: 1.5 µM
